Tests used:
[1] = test system: P. aeruginosa 6294 (O6); assay: Acute pneumonia model in mice, strain 6294; type: in vivo, Pseudomonas aeruginosa
Method: (§1) Antibodies or PBS were administered 24 hours before infection in each model. P. aeruginosa acute pneumonia, keratitis, and thermal injury infection models were performed as described (DiGiandomenico, A., et al., Proc Natl Acad Sci USA 104, 4624-4629 (2007)), with modifications. In the acute pneumonia model, BALB/c mice (The Jackson Laboratory) were infected with P. aeruginosa strains suspended in a 0.05 ml inoculum. In the thermal injury model, CF-1 mice (Charles River) received a 10% total body surface area burn with a metal brand heated to 92° C. for 10 seconds. Animals were infected subcutaneously with P. aeruginosa strain 6077 at the indicated dose. For organ burden experiments, acute pneumonia was induced in mice followed by harvesting of lungs, spleens, and kidneys 24 hours post-infection for determination of CFU.

[2] = test system: P. aeruginosa 6077 (O11-cytotoxic); assay: Corneal infection (keratitis) model in mice, strain 6077; type: in vivo, Pseudomonas aeruginosa; conditions: C3H/HeN mice, IP dosing 16 hours prior to 6077 (1×10^6 CFU), FIG. 8H
Method: as §1
Cam-003 and WapR-004 efficacy was next evaluated in a P. aeruginosa corneal infection model which emphasizes the pathogens ability to attach and colonize damaged tissue. […] FIG. 8 (H): The activity of anti-Psl and anti-PcrV monoclonal antibodies V2L2 was tested in a P. aeruginosa mouse ocular keratitis model. C3H/HeN mice were injected intraperitoneally (IP) with PBS or a control IgG1 antibody (R347) at 45 mg/kg or WapR-004 (α-Psl) at 5 mg/kg or V2L2 (α-PcrV) at 5 mg/kg, 16 hours prior to infection with 6077 (O11-cytotoxic−1×10^6 CFU) Immediately before infection, mice were anesthetized followed by initiation of three 1 mm scratches on the cornea and superficial stroma of one eye of each mouse using a 27-gauge needle under a dissection microscope, followed by topical application of P. aeruginosa 6077 strain in a 5 μl inoculum. Eyes were photographed at 48 hours post infection followed by corneal grading by visualization of eyes under a dissection microscope. Grading of corneal infection was performed as previously described by Preston et al. (Preston, M J., 1995, Infect. Immun. 63:3497). Briefly, infected eyes were graded 48 h after infection with strain 6077 by an investigator who was unaware of the animal treatments. The following grading scheme was used: grade 0, eye macroscopically identical to an uninfected eye; grade 1, faint opacity partially covering the pupil; grade 2, dense opacity covering the pupil; grade 3, dense opacity covering the entire pupil; grade 4, perforation of the cornea (shrinkage of the eyeball).

[3] = test system: P. aeruginosa 6206 (O11-ExoU+); assay: Acute pneumonia model in mice, strain 6206; type: in vivo, Pseudomonas aeruginosa; conditions: 6206; W4-RAD 0.2 mg/kg; monitored 120 hours; FIG. 21A
Method: as §1

[4] = test system: P. aeruginosa serogroup 05 strain (PAO1.lux); assay: Opsonophagocytic killing (OPK) assay with luminescent PAO1.lux, HL-60 cells and baby rabbit serum; type: cell-based, Pseudomonas aeruginosa; conditions: FIG. 10C, 11N-Q
Method: This example describes the evaluation of prioritized human IgG1 antibodies to promote OPK of P. aeruginosa. […] OPK assays were performed as described in (DiGiandomenico, A., et al., Infect Immun 72, 7012-7021 (2004)), with modifications. Briefly, assays were performed in 96-well plates using 0.025 ml of each OPK component; P. aeruginosa strains; diluted baby rabbit serum; differentiated HL-60 cells; and monoclonal antibody. In some OPK assays, luminescent P. aeruginosa strains, which were constructed as described (Choi, K. H., et al., Nat Methods 2, 443-448 (2005))., were used. Luminescent OPK assays were performed as described above but with determination of relative luciferase units (RLUs) using a Perkin Elmer ENVISION Multilabel plate reader (Perkin Elmer).

[5] = test system: P. aeruginosa 6077 (exoU+); assay: Rabbit red blood cell lysis inhibition assay with strain 6077; type: cell-based, Pseudomonas aeruginosa; conditions: strain 6077; FIG. 12D-E
Method: Percent inhibition of cytotoxicity analysis was analysed for the parental V2L2 mAb, mAb166 (positive control) and R347 (negative control), where the antibodies were administered to cultured broncho-epithelial cell line A549 combined with log-phase P. aeruginosa strain 6077 (exoU+) at a MOI of approximately 10. A549 lysis was assayed by measuring released lactate dehydrogenase (LDH) activity and lysis in the presence of mAbs was compared to wells without mAb to determine percent inhibition. The V2L2 mAb, mAb166 (positive control) and R347 (negative control) were evaluated for their ability to prevent lysis of RBCs, where the antibodies were mixed with log-phase P. aeruginosa 6077 (exoU^+) and washed rabbit red blood cells (RBCs) and incubated for 2 hours at 37°. Intact RBCs were pelleted and the extent of lysis determined by measuring the OD405 of the cell-free supernatant. Lysis in the presence of anti-PcrV mAbs was compared to wells without mAb to determine percent inhibition.

B1: WapR-004RAD: identical to WapR-004 except for substitution G98A of the VH; VH SEQ ID NO: 74, VL SEQ ID NO: 12 (antibody, V domains shown)
VH: EVQLLESGPGLVKPSETLSLTCNVAGGSISPYYWTWIRQPPGKGLELIGYIHSSGYTDYNPSLKSRVTISGDTSKKQFSLHVSSVTAADTAVYFCARADWDLLHALDIWGQGTLVTVSS
VL: EIVLTQSPSSLSTSVGDRVTITCRASQSIRSHLNWYQQKPGKAPKLLIYGASNLQSGVPSRFSGSGSGTDFTLTISSLQPEDFATYYCQQSYSFPLTFGGGTKLEIK
modifications: WapR-004RAD VH; WapR-004 & WarR-004RAD VL
organ burden in lung, spleen and kidney ([1]; 2.5×10^7 CFU 6294, Bs2-/Bs3-V2L2 0.7 mg/kg, V2L2 or W4-RAD 0.5 mg/kg, FIG. 23A): no effect on decreasing organ burden | survival effect, in words ([1]; 6294, bispecifics 0.28 mg/kg, V2L2 or W4-RAD 0.2 mg/kg, FIG. 24): did not affect survival | bacterial CFU in total eye homogenates compared to R347 control [2]: reduced bacterial colony forming units (CFU) in total eye homogenates | corneal pathology compared to R347 control ([2]; graded 48 h after infection): significantly less pathology | animals survived [3]: Approximately 90%

B2: Psl0225: lead optimized anti-Psl clone; VH SEQ ID NO:290, VL SEQ ID NO:291 (antibody, V domains shown)
VH: QVQLQESGPGLVKPSETLSLTCTVSGGSISPYYWTWIRQPPGKGLELIGYIHSSGYTDYNPSLKSRVTISGDTSKKQFSLKLSSVTAADTAVYYCARAMDIEPHALDIWGQGTMVTVSS
VL: DIQLTQSPSSLSASVGDRVTITCRASQSIRSHLNWYQQKPGKAPKLLIYGASNLQSGVPSRFSGSGSGTDFTLTISSLQPEDFATYYCQQSDDGFPNFGGGTKVEIK
modifications: Psl0225-Germline VH; Psl0225-Germline VL
OPK activity of lead optimized anti-Psl clones (basis of selection) [4]: enhanced OPK activity

B3: Psl0337: lead optimized anti-Psl clone; VH SEQ ID NO:295, VL SEQ ID NO:296 (antibody, V domains shown)
VH: QVQLQESGPGLVKPSETLSLTCTVSGGSISPYYWTWIRQPPGKGLELIGYIHSSGYTDYNPSLKSRVTISGDTSKKQFSLKLSSVTAADTAVYYCARADWDHKHALDIWGQGTMVTVSS
VL: DIQLTQSPSSLSASVGDRVTITCRASQSIRSHLNWYQQKPGKAPKLLIYGASNLQSGVPSRFSGSGSGTDFTLTISSLQPEDFATYYCQDSSSWPLTFGGGTKVEIK
modifications: Psl0337-Germline VH; Psl0337-Germline VL
OPK activity of lead optimized anti-Psl clones (basis of selection) [4]: enhanced OPK activity

B4: Psl0588: lead optimized anti-Psl clone; VH SEQ ID NO:292, VL SEQ ID NO:293 (antibody, V domains shown)
VH: QVQLQESGPGLVKPSETLSLTCTVSGGSISPYYWTWIRQPPGKGLELIGYIHSSGYTDYNPSLKSRVTISGDTSKKQFSLKLSSVTAADTAVYYCARADDPFPGYLDIWGQGTMVTVSS
VL: DIQLTQSPSSLSASVGDRVTITCRASQSIRSHLNWYQQKPGKAPKLLIYGASNLQSGVPSRFSGSGSGTDFTLTISSLQPEDFATYYCQQSDTFPLKFGGGTKVEIK
modifications: Psl0588-Germline VH
OPK activity of lead optimized anti-Psl clones (basis of selection) [4]: enhanced OPK activity

B5: V2L2-GL: V2L2-germlined mAb (antibody, V domains shown)
VH: EVQLLESGGGLVQPGGSLRLSCAASGFTFSSYAMNWVRQAPGKGLEWVSAITISGITAYYTDSVKGRFTISRDNSKNTLYLQMNSLRAEDTAVYYCAKEEFLPGTHYYYGMDVWGQGTTVTVSS
VL: AIQMTQSPSSLSASVGDRVTITCRASQGIRNDLGWYQQKPGKAPKLVIYSASTLQSGVPSRFSGSGSGTDFTLSISSLQPDDFATYYCLQDYNYPWTFGQGTKVEIK
modifications: V2L2-GL VH; V2L2-MD and V2L2-GL VL
notes: V2L2-germlined mAb
prevention of RBC lysis [5]: demonstrated prevention of RBC lysis
